Blank lines part the entries; values can stand above or below the molecule they belong to. Non-standard residues stand in square brackets, D forms with d. No end group written: not given here. pT = C[C@@H](OP(=O)(O)O)[C@H](N)C(=O)O
B2: Spc24–Spc25 complex (Spc24^92–197, Spc25^70–224) (complex, human)
chain 1: EEDTRLKASLLQLTRELEELKEIEADLERQEKEVDEDTTVTIPSAVYVAQLYHQVSKIEWDYECEPGMVKGIHHGPSVAQPIHLDSTQLSRKFISDYLWSLVDTEW
chain 2: RQNKLIQEKKDNLLKLIAEVKGKKQELEVLTANIQDLKEEYSRKKETISTANKANAERLKRLQKSADLYKDRLGLEIRKIYGEKLQFIFTNIDPKNPESPFMFSLHLNEARDYEVSDSAPHLEGLAEFQENVRKTNNFSAFLANVRKAFTATVYN

Legend:
CENP-C = CENP-C (UniProt Q03188); experiment: anti-GFP IP, immunoblot; settings: reference: Dsn1-WT-GFP; sites S100,S109
[1] = target: fluorescein-labeled CENP-C^1–28 peptide (human, 5FAM (fluorescein) on the N-terminus); experiment: MST
[2] = target: B2; experiment: pull-down
[3] = target: T1, His6-tagged recombinant Mis12C containing Dsn1-WT (human, UniProt Q9H410 1-356; Q96IY1 1-258; Q9H081 1-205; Q6P1K2 1-205); experiment: pull-down
T1 sequence (looked up) 1: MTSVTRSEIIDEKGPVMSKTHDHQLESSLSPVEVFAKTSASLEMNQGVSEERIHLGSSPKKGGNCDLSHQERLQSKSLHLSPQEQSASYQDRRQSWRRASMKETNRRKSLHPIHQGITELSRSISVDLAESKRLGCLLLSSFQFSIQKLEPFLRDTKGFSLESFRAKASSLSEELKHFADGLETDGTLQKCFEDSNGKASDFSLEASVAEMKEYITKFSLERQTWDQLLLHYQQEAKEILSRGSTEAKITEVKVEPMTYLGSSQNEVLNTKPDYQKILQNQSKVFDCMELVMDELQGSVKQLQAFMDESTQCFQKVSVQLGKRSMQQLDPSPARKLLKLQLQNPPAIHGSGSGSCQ
T1 sequence (looked up) 2: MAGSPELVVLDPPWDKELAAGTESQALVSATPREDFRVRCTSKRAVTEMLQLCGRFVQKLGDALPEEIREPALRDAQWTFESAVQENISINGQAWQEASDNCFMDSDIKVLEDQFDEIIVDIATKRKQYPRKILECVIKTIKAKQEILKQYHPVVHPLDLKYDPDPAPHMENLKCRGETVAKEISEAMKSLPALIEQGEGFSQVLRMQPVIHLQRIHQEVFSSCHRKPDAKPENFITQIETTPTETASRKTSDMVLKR
T1 sequence (looked up) 3: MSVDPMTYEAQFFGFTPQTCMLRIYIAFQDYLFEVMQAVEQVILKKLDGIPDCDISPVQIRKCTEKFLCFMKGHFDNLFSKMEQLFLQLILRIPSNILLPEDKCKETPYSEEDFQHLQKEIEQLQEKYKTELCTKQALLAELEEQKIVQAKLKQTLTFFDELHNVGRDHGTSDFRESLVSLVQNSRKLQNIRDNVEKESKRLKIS
T1 sequence (looked up) 4: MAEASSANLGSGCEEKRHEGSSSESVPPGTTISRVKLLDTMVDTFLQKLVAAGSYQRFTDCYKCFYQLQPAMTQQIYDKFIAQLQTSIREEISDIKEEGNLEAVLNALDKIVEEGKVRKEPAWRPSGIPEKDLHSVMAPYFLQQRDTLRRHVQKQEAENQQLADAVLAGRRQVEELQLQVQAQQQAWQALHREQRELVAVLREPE

binding against the reference (CENP-C): weaker
Molecule: Dsn1 (from UniProt Q9H410) Dsn1-S100A/S109A-GFP

Kd [1]: 2100 ± 400 nM
B1: Recombinant Mis12C-WT (construct not told for this experiment) (complex)
chain 1: MTSVTRSEIIDEKGPVMSKTHDHQLESSLSPVEVFAKTSASLEMNQGVSEERIHLGSSPKKGGNCDLSHQERLQSKSLHLSPQEQSASYQDRRQSWRRASMKETNRRKSLHPIHQGITELSRSISVDLAESKRLGCLLLSSFQFSIQKLEPFLRDTKGFSLESFRAKASSLSEELKHFADGLETDGTLQKCFEDSNGKASDFSLEASVAEMKEYITKFSLERQTWDQLLLHYQQEAKEILSRGSTEAKITEVKVEPMTYLGSSQNEVLNTKPDYQKILQNQSKVFDCMELVMDELQGSVKQLQAFMDESTQCFQKVSVQLGKRSMQQLDPSPARKLLKLQLQNPPAIHGSGSGSCQ
chain 2: MAGSPELVVLDPPWDKELAAGTESQALVSATPREDFRVRCTSKRAVTEMLQLCGRFVQKLGDALPEEIREPALRDAQWTFESAVQENISINGQAWQEASDNCFMDSDIKVLEDQFDEIIVDIATKRKQYPRKILECVIKTIKAKQEILKQYHPVVHPLDLKYDPDPAPHMENLKCRGETVAKEISEAMKSLPALIEQGEGFSQVLRMQPVIHLQRIHQEVFSSCHRKPDAKPENFITQIETTPTETASRKTSDMVLKR
chain 3: MSVDPMTYEAQFFGFTPQTCMLRIYIAFQDYLFEVMQAVEQVILKKLDGIPDCDISPVQIRKCTEKFLCFMKGHFDNLFSKMEQLFLQLILRIPSNILLPEDKCKETPYSEEDFQHLQKEIEQLQEKYKTELCTKQALLAELEEQKIVQAKLKQTLTFFDELHNVGRDHGTSDFRESLVSLVQNSRKLQNIRDNVEKESKRLKIS
chain 4: MAEASSANLGSGCEEKRHEGSSSESVPPGTTISRVKLLDTMVDTFLQKLVAAGSYQRFTDCYKCFYQLQPAMTQQIYDKFIAQLQTSIREEISDIKEEGNLEAVLNALDKIVEEGKVRKEPAWRPSGIPEKDLHSVMAPYFLQQRDTLRRHVQKQEAENQQLADAVLAGRRQVEELQLQVQAQQQAWQALHREQRELVAVLREPE

binding result [2]: binds
Molecule: HLEEQ[pT]PRTLLKNILLTAPESSILM (peptide, UniProt Q96BT3 80-104, looked up) [synthetic phospho-T85 CENP-T peptide containing residues 80–104]

Molecule: B2
binding result [3]: binds

Reference: publication PMC4298689 (The Journal of Cell Biology, 2015)
